According to article PMC8347620, “Arabidopsis G-Protein β Subunit AGB1 Negatively Regulates DNA Binding of MYB62, a Suppressor in the Gibberellin Pathway”:

Biological target: T1, MBP-MYB62 (Arabidopsis thaliana, UniProt Q9C9G7 1-286)
T1 sequence: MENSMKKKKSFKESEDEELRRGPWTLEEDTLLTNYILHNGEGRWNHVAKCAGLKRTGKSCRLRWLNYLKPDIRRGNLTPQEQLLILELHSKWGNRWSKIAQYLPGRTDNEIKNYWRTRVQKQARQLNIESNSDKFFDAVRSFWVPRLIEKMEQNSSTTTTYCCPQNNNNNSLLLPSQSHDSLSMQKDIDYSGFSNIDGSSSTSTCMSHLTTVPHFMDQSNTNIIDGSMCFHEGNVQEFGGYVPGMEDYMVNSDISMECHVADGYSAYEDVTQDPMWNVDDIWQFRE
Test: EMSA; EMSA: 2.5% glycerol, 50 mM KCl, 5 mM MgCl2, 10 mM EDTA, 30 min, room temperature; pH not stated
Conditions: protein: recombinant; tags: MBP (pMAL-c2x); label: biotin on both strands (BIO printed before each oligo); blunt

B1: ProGA2ox7 probe (MYB element) (dsDNA)
DNA 1: AAGCCCTTGGTTGGGGATGG
DNA 2: CCATCCCCAACCAAGGGCTT
Question: Does B1 bind?
Answer: binds
